These results are taken from patent CN113817050A.

The assay has as its target 抗原(Biacore 8K表面等离子共振实验，未指明). Description: SPR, Biacore 8K; antigen and format not given. In general terms: SPR reads the build-up and loss of mass on a sensor chip optically.

B1: 抗SARS-CoV-2的单克隆抗体1H8 (antibody, V domains shown)
VH: EVQLVESGGGLVQPGGSLRLSCAASEITVSSNYMNWVRQAPGKGLEWVSVIYSGGTTYYADSVKGRFTISRDNSENTLYLQMNSLRAEDTAVYYCARDLMEVGGMDVWGQGTTVTVSS
VL: DIVMTQSPSSLSASVGDRVTITCRASQGVSNYLAWYQQKPGKVPKLLIYAASTLQSGVPSRFSGSRSGTDFTLTISSLQPEDVATYYCQNYNSAPFAFGPGTKVEIK
The molecule B1 had a Kd of 18.7 nM, a koff of 0.00138 s⁻¹ and a kon of 73600 M⁻¹ s⁻¹.

What is called Kd is the concentration at which binding is half-saturated. Usually koff stands for a measure of how fast the partners let go of each other. Read a low koff as slow dissociation. Usually kon stands for the rate constant with which the complex forms. A low value points to slow association.
